Experimental data: article PMC10187677 (RNA, 2023)

How the values were obtained:
Test in all cases: pull-down
[1] = target: T1, His6-GIGYF2 GYF domain F592E (human, UniProt Q6Y7W6 529-597, F592E)
T1 sequence (looked up): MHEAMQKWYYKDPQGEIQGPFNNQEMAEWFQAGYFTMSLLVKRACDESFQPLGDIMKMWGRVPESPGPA

[2] = target: T2, His6-GIGYF1 GYF domain F533E (human, UniProt O75420 470-538, F533E)
T2 sequence (looked up): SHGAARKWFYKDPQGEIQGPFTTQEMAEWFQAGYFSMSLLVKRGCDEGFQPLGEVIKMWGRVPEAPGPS

[3] = target: T3, His6-GIGYF2 GYF domain (residues 529-597) (human, UniProt Q6Y7W6 529-597)
T3 sequence (looked up): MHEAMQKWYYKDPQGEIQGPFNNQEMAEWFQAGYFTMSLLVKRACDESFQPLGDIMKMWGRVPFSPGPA

[4] = target: T4, His6-GIGYF1 GYF domain (residues 470-538) (human, UniProt O75420 470-538)
T4 sequence (looked up): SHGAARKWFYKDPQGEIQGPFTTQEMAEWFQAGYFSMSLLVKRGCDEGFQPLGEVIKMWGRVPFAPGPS

Measured: binding result

GWVPPPPGFAP (peptide, UniProt P26651 68-78, looked up) [GST-tagged fragment of the first tetra-proline region of TTP (residues 68-78)]
binds: all assays above
